The record followed here is patent publication US20110318339A1 (FABRUS, published 2011).

The target of test [1] is T1, DLL4 DSL (amino acid: 1-217) construct (human, UniProt Q9NR61 26-217).
T1 construct: also called DSL construct; not shown: myc tag (and his tag) added by the PCR primers
Briefly: Western blot, non-reducing. The method, then:
(§1) Media from transfected CHO cells was collected after 7 days. To enrich for the DLL4 protein, 1 ml aliquots of each sample were batch bound with 50 μl of Talon Resin for 30 minutes. To confirm protein production media samples were tested with mouse anti-c-myc mAb (Genescript; Catalog # A00704). Samples were washed and then boiled with loading dye in the presence or absence of DTT. A gel was run on each of the 2 samples for each condition: with DTT and without DTT. […] For detection goat anti-mouse HRP, goat anti-kappa HRP, and goat anti-lambda HRP were used, respectively.
(Immunoblotting shows a protein as a band on a membrane.)

Test [2] deals with T2, DLL4 Egf1 (amino acid: 1-251) construct (human, UniProt Q9NR61 26-251).
T2 construct: also called EGF1 construct; not shown: myc tag (and his tag) added by the PCR primers
Nature of the test: Western blot, non-reducing. How it is done:
as §1

Test [3] deals with T3, DLL4 Egf2 (amino acid: 1-282) construct (human, UniProt Q9NR61 26-282).
T3 construct: also called EGF2 construct; not shown: myc tag (and his tag) added by the PCR primers
Briefly: Western blot, non-reducing. How it is done:
as §1

In test [4] the target is T4, recombinant human DLL4 (Cat# 1506-D4/CF, R&D Systems) (human, UniProt Q9NR61 27-529).
T4 construct: Bought protein; also called hDLL4; rHuman DLL4
Briefly: ELISA, DLL4 coated, Fab 50 nM. How it is done:
(§2) The plate was blocked by adding 1% BSA in Tris-buffered Saline Tween (TBST) and incubating for 1 hour at room temperature followed by washing 2 times with 150 μl TBST. A Fab antibody was serially diluted in 1% BSA in PBS. A 50 μl aliquot of each serial dilution was added, in triplicate, to each well and the plate was incubated for 1 hour at room temperature followed by washing 2 times with TBST. 50 μl of either goat anti-human kappa HRP conjugated secondary antibody (Cat # A7164-1 mL, Sigma-Aldrich) or goat anti-human lambda HRP conjugated secondary antibody (Cat # L1645-1 ml, Sigma-Aldrich), diluted 1:1000 in 1% BSA in PBS, was added to each well and the plate was incubated for 30 minutes at room temperature followed by washing 3 times with 200 μl TBST. Finally, 50 μl TMB one-component reagent (Cat # TMBW-1000-01, BioFax) was added and allowed to develop for 2 minutes at room temperature. The reaction was immediately halted by the addition of 50 μl 0.5M H₂SO₄ and the absorbance at 450 nm was measured using an ELISA plate reader.

Test [5] concerns the target T4, recombinant human DLL4 (Cat# …). Briefly: ELISA, DLL4 coated, Fab 75 nM. In general terms: ELISA stands for enzyme-linked immunosorbent assay.
The target is the same in test [6]. Briefly: ELISA, DLL4 coated, Fab 50 nM. How it is done:
as §2
The source holds these as a separate data set.

Test [7] has the same target. Briefly: ELISA, DLL4 coated, Fab 25 nM. In a few lines:
(§3)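 Binding of Fab to the coated plate is measured by absorbance at 450 nm. Triplicate serial dilutions incubate 1 h at room temperature after 1% BSA/TBST blocking, and HRP-labelled anti-human kappa or lambda antibody (1:1000, 30 min) with 2-min TMB development reports bound Fab.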

The target is the same in test [8]. Nature of the test: ELISA, DLL4 coated, Fab 100 nM.
Test [9] has the same target. Briefly: ELISA, DLL4 coated, Fab 100 nM. In a few lines: as §3
The source holds these as a separate data set.

Test [10] has the same target. Briefly: ELISA, DLL4 coated, Fab 12.5 nM. How it is done:
as §2

For test [11] the target is unchanged. Nature of the test: ELISA, DLL4 coated, Fab 6.25 nM. The method, then: as §2
Test [12] shares this target. Briefly: ELISA, DLL4 coated, Fab 3.125 nM. How it is done:
as §2

Test [13] has the same target. Briefly: SPR (ProteOn), hDLL4 amine-coupled on chip. In a few lines:
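SPR on a ProteOn GLM chip, with DLL4 amine-coupled at three surface densities. Fab analytes were run as 3-fold serial dilutions from 1 μM in 10 mM HEPES pH 7.4, 150 mM NaCl, 0.01% Tween-20, 0.1 mg/ml BSA at 25° C. Responses from each surface were globally fit for binding constants.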

Test [14] shares this target. Nature of the test: SPR (ProteOn), hDLL4 amine-coupled on chip; 2-site binding, 10% of it by the footnote. The method, then: (§4) In this example, the binding affinities of selected anti-DLL4 Fabs to recombinant human DLL4 (hDLL4, Cat# 1506-D4/CF, R&D Systems) were analyzed using Surface Plasmon Resonance (SPR) (Biosensor Tools, Salt Lake City, Utah). The Fabs analyzed include germline-derived antibodies and germline-modified DLL4 antibodies. Recombinant hDLL4 was immobilized on a SPR chip using amine coupling at three different surface densities. The Fabs were serially diluted 3-fold, with an initial concentration of 1 μM. Binding studies were run on a ProteOn system using a GLM sensor chip in 10 mM HEPES, pH 7.4, 150 mM NaCl, 0.01% Tween-20, and 0.1 mg/ml BSA at 25° C. The response data from each surface was globally fit to determine the binding constants.

Test [15] has the same target. Briefly: SPR (ProteOn), hDLL4 amine-coupled on chip; 2-site binding, 89% of it by the footnote. The method, then: as §4

B1: Fab VH5-51_IGHD5-18*01>3_IGHJ4*01 H:KT TRV & V3-4_IGLJ1*01 L:LP S52G (Fab, V domains shown)
VH: EVQLVQSGAEVKKPGESLKISCKTSGYRFTSYWIVWVRQMPGKGLEWMGIIYPGDSDTRYSPSFQGQVTISADKSISTAYLQWSSLKASDTAMYYCARRKYSYTYDYFDYWGQGTLVTVSS
VL: QTVVTQEPSFSVSPGGTVTLTCGLSSGSVSTSYYPSWYQQTPGQAPRTLIYGTNTRSSGVPDRFSGSILGNKAALTITGAQADDESDYYCLLYMGPGISYVFGTGTKVTVL
notes: Fab, lambda light chain; also called Fab H:KT TRV & L:LP S52G
For B1, the binding result in test [1], in [2] and in test [3] was “no binding (tested: 20 nM Fab)” throughout.

B2: Fab VH1-46_IGHD6-6*01_IGHJ1*01 S102A/S103P/S104F/H111F & L6_IGKJ1*01 S28N/S30D/S31H (Fab, V domains shown)
VH: QVQLVQSGAEVKKPGASVKVSCKASGYTFTSYYMHWVRQAPGQGLEWMGIINPSGGSTSYAQKFQGRVTMTRDTSTSTVYMELSSLRSEDTAVYYCAREEYAPFSAEYFQFWGQGTLVTVSS
VL: EIVLTQSPATLSLSPGERATLSCRASQNVDHYLAWYQQKPGQAPRLLIYDASNRATGIPARFSGSGSGTDFTLTISSLEPEDFAVYYCQQRSNWPPWTFGQGTKVEIKR
notes: Fab made in E. coli: VH on CH1 with His6 and Flag tags (Plasmid A), VL on kappa CL (Plasmid C); also called H: APFF & L: NDH
Regarding B2, the “ELISA absorbance at 450 nm” value worked out at 0.202 A450 in test [4]; 0.268 A450 in test [5]; 0.507 A450 in test [6]; 0.31 A450 in [7]; 0.259 A450 in [8]; 0.686 A450 in test [9]. For the same molecule, the figures for the “ELISA absorbance at 450 nm” value in test [10], in test [11] and in test [12] were 0.192 A450, 0.125 A450 and 0.096 A450, respectively. In test [13], the off-rate constant (koff) (usually the first-order rate constant of dissociation) worked out at 0.0689 s⁻¹. Further, the association rate constant (kon) – broadly, the rate constant with which the complex forms – in [13] came out at 444000 M⁻¹ s⁻¹. Besides, the dissociation constant Kd (commonly a measure of binding affinity in units of concentration) in [14] turned out to be 14 nM; in [15], 155 nM.
